The numbers were not newly measured in patent US20140212945, which cites them from elsewhere.

By Kd is commonly meant the free concentration of one partner at which half of the binding sites on the other are occupied at equilibrium, for simple one-to-one binding.

The data set concerns the target T1, MBNL1 (muscleblind-like 1 protein) (UniProt Q9NR56).
T1 sequence: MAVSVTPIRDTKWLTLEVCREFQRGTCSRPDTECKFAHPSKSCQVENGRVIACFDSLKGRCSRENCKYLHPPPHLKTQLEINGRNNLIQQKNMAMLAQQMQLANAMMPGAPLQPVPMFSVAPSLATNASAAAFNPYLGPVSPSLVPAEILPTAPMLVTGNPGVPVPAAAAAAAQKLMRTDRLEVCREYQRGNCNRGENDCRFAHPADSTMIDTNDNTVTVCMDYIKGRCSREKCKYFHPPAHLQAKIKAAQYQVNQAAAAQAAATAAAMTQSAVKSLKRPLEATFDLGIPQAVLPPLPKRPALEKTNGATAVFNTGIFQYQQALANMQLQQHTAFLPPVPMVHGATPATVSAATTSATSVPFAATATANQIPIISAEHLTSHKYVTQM
The conditions noted are these: CITED; value taken from previous report (ref 15 / ref 13); Table 5 lists the same value for r(CUG)exp.

On to r(CUG)12x2, for which the equilibrium dissociation constant (Kd) is 250 nM.
